Data published in patent publication US20260176358A1 (JIANGSU HENGRUI PHARMACEUTICALS, published 2026).
Changes are numbered by the printed parent chain. Where two headings read alike, the source gives them in different places. Each block holds one binder with its values, some of them ahead of it.

Legend:
PACAP38 [1] = molecular target: T1, PACAP38 (UniProt P18509 132-169, biotinylated in the ELISAs); experiment: ELISA, antibody on coated anti-human Fc, biotinylated peptide
T1 peptide (looked up): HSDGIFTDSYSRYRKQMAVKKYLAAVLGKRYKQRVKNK
Description: (§1) Plates were coated with 1 μg/mL anti-human Fc and blocked, and the antibodies, serially diluted, were added. […] The plates were incubated for 1 h and washed, and a horseradish peroxidase-labeled streptavidin secondary antibody was then added. After incubation, color development was performed.

PACAP27 = molecular target: T2, PACAP27 (UniProt P18509 132-158, biotinylated in the ELISAs); experiment: as above
T2 peptide (looked up): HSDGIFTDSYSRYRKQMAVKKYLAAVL
Description: as §1

PACAP38 [2] = molecular target: T1, PACAP38; experiment: cell-based or functional assay
CGRP [3] = experiment: cell-based or functional assay
rat CGRP [4] = molecular target: T3, rat CGRP (rat, UniProt P01256 83-119); experiment: SPR, Biacore 8K, antibody captured on Protein A chip, 1:1 model
T3 peptide (looked up): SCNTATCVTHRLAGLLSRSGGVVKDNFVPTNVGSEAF
Description: A Protein A biosensor chip was used to affinity-capture IgG, and a molecule sample was then allowed to flow through the surface of the chip. Reaction signals were detected in real time using a Biacore 8K system to obtain association and dissociation curves. After the dissociation in each experimental cycle was complete, the biosensor chip was washed and regenerated 3 times with 50 mM NaOH. Data fitting was performed using a 1:1 model.

human CGRP [5] = molecular target: T4, human CGRP (human, UniProt P06881 83-119); experiment: SPR, Biacore 8K, 25 C, biotinylated antibody on SA chip, 1:1 model
T4 peptide (looked up): T3 peptide (looked up) with S1A, N3D, D25N, E35K
Description: First, the test antibodies ([…] for the mAbs and 4 μg/mL for the diabodies), biotinylated (indicated by Biotin-), were each coupled onto an SA biosensor chip. Then samples of the antigen human CGRP were sequentially injected in ascending order for 180 s, followed by dissociation. After the test was finished, fitting was performed using a 1:1 binding model.

human CGRP [6] = molecular target: T4, human CGRP; experiment: ELISA, coated CGRP
Description: (§2) In this test example, the abilities of the chimeric antibodies and humanized antibodies of C1 #, C9 #, C21 #, and C28 #to bind to human CGRP and rat CGRP were assessed using ELISAs. Plates were coated with […] human CGRP and rat CGRP, respectively, and blocked, and the antibodies, serially diluted, were then added. The plates were incubated for 1 h and washed, and a horseradish peroxidase-labeled anti-human Fc secondary antibody was then added. After incubation, color development was performed. […] The plates were incubated for 1 h and washed, and the antibodies, serially diluted, were then added. The plates were incubated for 1 h and washed, and a horseradish peroxidase-labeled streptavidin secondary antibody was then added. After incubation, color development was performed.

rat CGRP [7] = molecular target: T3, rat CGRP; experiment: ELISA, coated CGRP
Description: as §2

CGRP [8] = experiment: cell-based or functional assay; remark: listed apart in the source

EC50 (PACAP38 [1]): 0.15 nM
EC50 (PACAP27): 0.28 nM
IC50, inhibition of cAMP production in SH-SY5Y cells (PACAP38 [2]): 4.31 nM
IC50, inhibition of cAMP production in SK-N-MC cells (CGRP [3]): 2.66 nM
Kd (rat CGRP [4]): 0.778 nM
koff (rat CGRP [4]): 0.00116 s⁻¹
kon (rat CGRP [4]): 1.5e+06 M⁻¹ s⁻¹
Kd (human CGRP [5]): 7.15 pM
koff (human CGRP [5]): 1.77e-05 s⁻¹
kon (human CGRP [5]): 2.48e+06 M⁻¹ s⁻¹
B1: CP-1 (bispecific antibody)
heavy: EVQLVESGGGLVQPGGSLRLSCAASGFAFNNYDMSWVRQAPGKGLEWVATITGGGSYTWYPDSVKGRFTISRDNAKNSLYLQMNSLRAEDTAVYYCARLTGYDQAGAMDYWGQGTTVTVSSASTKGPSVFPLAPSSKSTSGGTAALGCLVKDYFPEPVTVSWNSGALTSGVHTFPAVLQSSGLYSLSSVVTVPSSSLGTQTYICNVNHKPSNTKVDKKVEPKSCEVQLVQSGAEVKKPGASVKVSCKASGYTFTDYYMNWVRQAPGQCLEWIGDINPNQGGTNYNQKFKGRATLTVDKSASTAYMELSSLRSEDTAVYYCASIIIVPNYFDYWGQGTTVTVSSGGGGSGGGGSGGGGSDIQMTQSPSSLSASVGDRVTITCKASQNVDTNVAWFQQKPGKAPKSLIYSASYRYSGVPSRFSGSGSGTDFTLTISSLQPEDFATYYCQQYNNYPYTFGCGTKVEIKGGGDKTHTCPPCPAPELLGGPSVFLFPPKPKDTLYITREPEVTCVVVDVSHEDPEVKFNWYVDGVEVHNAKTKPREEQYNSTYRVVSVLTVLHQDWLNGKEYKCKVSNKALPAPIEKTISKAKGQPREPQVYTLPPSRDELTKNQVSLTCLVKGFYPSDIAVEWESNGQPENNYKTTPPVLDSDGSFFLYSKLTVDKSRWQQGNVFSCSVMHEALHNHYTQKSLSLSPGK
light: DIVLTQSPDSLAVSLGERATINCKASQSVDYDGDSYMTWYQQKPGQPPKLLIYAASHLDSGIPDRFSGSGSGTDFTLTISSLQAEDVAVYYCQQSNEDPWTFGGGTKVEIKRTVAAPSVFIFPPSDEQLKSGTASVVCLLNNFYPREAKVQWKVDNALQSGNSQESVTEQDSKDSTYSLSSTLTLSKADYEKHKVYACEVTHQGLSSPVTKSFNRGEC
notes: Format 2+2, anti-PACAP Fab (P14H2L3) and anti-CGRP scFv (C21H5L3), IgG1 (YTE) Fc; also called Biotin-CP-1

EC50 (PACAP38 [1]): 0.1 nM
EC50 (PACAP27): 0.16 nM
IC50, inhibition of cAMP production in SH-SY5Y cells (PACAP38 [2]): 1.92 nM
IC50, inhibition of cAMP production in SK-N-MC cells (CGRP [3]): 2.03 nM
Kd (rat CGRP [4]): 0.358 nM
koff (rat CGRP [4]): 0.000743 s⁻¹
kon (rat CGRP [4]): 2.07e+06 M⁻¹ s⁻¹
Kd (human CGRP [5]): 11.7 pM
koff (human CGRP [5]): 2.35e-05 s⁻¹
kon (human CGRP [5]): 2e+06 M⁻¹ s⁻¹
B2: CP-2 (bispecific antibody)
heavy: EVQLVESGGGLVQPGGSLRLSCAASGFAFNNYDMSWVRQAPGKGLEWVATITGGGSYTWYPDSVKGRFTISRDNAKNSLYLQMNSLRAEDTAVYYCARLTGYDQAGAMDYWGQGTTVTVSSASTKGPSVFPLAPSSKSTSGGTAALGCLVKDYFPEPVTVSWNSGALTSGVHTFPAVLQSSGLYSLSSVVTVPSSSLGTQTYICNVNHKPSNTKVDKKVEPKSCEVQLVQSGAEVKKPGASVKVSCKASGYTFTDYYMNWVRQAPGQCLEWMGDINPNTGVTTYNQKFKGRVTITVDKSASTAYMELSSLRSEDTAVYYCASIIIVPDYFDYWGQGTTVTVSSGGGGSGGGGSGGGGSDIQMTQSPSSVSASVGDRVTITCKASQNVGSNVAWYQQKPGKSPKALIYSASYRYSGVPSRFSGSGSGTDFTLTISSLQPEDFATYYCQQYNSYPYTFGCGTKVEIKGGGDKTHTCPPCPAPELLGGPSVFLFPPKPKDTLYITREPEVTCVVVDVSHEDPEVKFNWYVDGVEVHNAKTKPREEQYNSTYRVVSVLTVLHQDWLNGKEYKCKVSNKALPAPIEKTISKAKGQPREPQVYTLPPSRDELTKNQVSLTCLVKGFYPSDIAVEWESNGQPENNYKTTPPVLDSDGSFFLYSKLTVDKSRWQQGNVFSCSVMHEALHNHYTQKSLSLSPGK
light: B1 light
notes: Format 2+2, anti-PACAP Fab (P14H2L3) and anti-CGRP scFv (C28H8L2), IgG1 (YTE) Fc; also called Biotin-CP-2

EC50 (human CGRP [6]): 2.3 nM
EC50 (rat CGRP [7]): 4.26 nM
IC50, inhibition of cAMP production in SK-N-MC cells (CGRP [8]): 1.25 nM
IC50, inhibition of cAMP production in SK-N-MC cells (CGRP [3]): 1.98 nM
Kd (rat CGRP [4]): 0.103 nM
koff (rat CGRP [4]): 0.000232 s⁻¹
kon (rat CGRP [4]): 2.25e+06 M⁻¹ s⁻¹
Kd (human CGRP [5]): 3.81 pM
koff (human CGRP [5]): 1.92e-05 s⁻¹
kon (human CGRP [5]): 5.04e+06 M⁻¹ s⁻¹
B3: C21H2L1 (antibody, human IgG1, kappa, V domains shown)
VH: EVQLVQSGAEVKKPGASVKVSCKASGYTFTDYYMNWVRQAPGQRLEWIGDINPNQGGTNYNQKFKGRATLTVDKSASTAYMELSSLRSEDTAVYYCASIIIVPNYFDYWGQGTTVTVSS
VL: DIQMTQSPSSLSASVGDRVTITCKASQNVDTNVAWFQQKPGKAPKSLIYSASYRYSGVPSRFSGSGSGTDFTLTISSLQPEDFATYYCQQYNNYPYTFGGGTKVEIKR
notes: also called Biotin-C21H2L1

EC50 (human CGRP [6]): 1.26 nM
EC50 (rat CGRP [7]): 5.29 nM
IC50, inhibition of cAMP production in SK-N-MC cells (CGRP [8]): 2.49 nM
IC50, inhibition of cAMP production in SK-N-MC cells (CGRP [3]): 1.61 nM
Kd (rat CGRP [4]): 0.0674 nM
koff (rat CGRP [4]): 0.000139 s⁻¹
kon (rat CGRP [4]): 2.06e+06 M⁻¹ s⁻¹
Kd (human CGRP [5]): 4.79 pM
koff (human CGRP [5]): 2.41e-05 s⁻¹
kon (human CGRP [5]): 5.03e+06 M⁻¹ s⁻¹
B4: C28H6L1 (antibody, human IgG1, kappa, V domains shown)
VH: B3 VH with I48M, Q55T, G57V, N59T, A68V, L70I, N104D
VL: B3 VL with L11V, D30G, T31S, F36Y, A43S, S46A, N93S
notes: also called Biotin-C28H6L1
